Assay results reported in patent US20240401101A1, “A LIVE CELL ASSAY TO DETERMINE PERMEABILITY OF TEST MOLECULES TO AND/OR WITHIN THE PEPTIDOGLYCAN SCAFFOLD OF BACTERIA CELLS” (priority 2021, published 2024).

Test system: S. aureus (ATCC 25923)
Test: Enzymatic degradation of fluorescently labeled whole cells (mutanolysin / proteinase K), incl. BONCAT control
Format: cell-based, Staphylococcus aureus

B1: proteinase K: promiscuous protease (protein, UniProt P06873 106-384, looked up)
Proteinase K: AAQTNAPWGLARISSTSPGTSTYYYDESAGQGSCVYVIDTGIEASHPEFEGRAQMVKTYYYSSRDGNGHGTHCAGTVGSRTYGVAKKTQLFGVKVLDDNGSGQYSTIIAGMDFVASDKNNRNCPKGVVASLSLGGGYSSSVNSAAARLQSSGVMVAVAAGNNNADARNYSPASEPSVCTVGASDRYDRRSSFSNYGSVLDIFGPGTSILSTWIGGSTRSISGTSMATPHVAGLAAYLMTLGKTTAASACRYIADTANKGDLSNIPFGTVNLLAYNNYQA
cellular fluorescence of D-cystine/Mal-Fl labeled cells during enzyme treatment (50 μg/mL mutanolysin or 500 μg/mL proteinase K, mutanolysin read at 120 minutes): remained mostly unchanged | cellular fluorescence of L-azidohomoalanine/DBCO-Fl labeled cells after enzyme treatment (BONCAT, 1 mM AHA, 25 μM DBCO-Fl): significant decrease
